Source: patent US20210395370A1 (AstraZeneca / MedImmune, published 2021)

Experiments:
[1] = biological target: T1, CD22 receptor on the Daudi cell line (human, UniProt P20273 20-847); assay: cell-based or functional assay
T1 sequence (looked up): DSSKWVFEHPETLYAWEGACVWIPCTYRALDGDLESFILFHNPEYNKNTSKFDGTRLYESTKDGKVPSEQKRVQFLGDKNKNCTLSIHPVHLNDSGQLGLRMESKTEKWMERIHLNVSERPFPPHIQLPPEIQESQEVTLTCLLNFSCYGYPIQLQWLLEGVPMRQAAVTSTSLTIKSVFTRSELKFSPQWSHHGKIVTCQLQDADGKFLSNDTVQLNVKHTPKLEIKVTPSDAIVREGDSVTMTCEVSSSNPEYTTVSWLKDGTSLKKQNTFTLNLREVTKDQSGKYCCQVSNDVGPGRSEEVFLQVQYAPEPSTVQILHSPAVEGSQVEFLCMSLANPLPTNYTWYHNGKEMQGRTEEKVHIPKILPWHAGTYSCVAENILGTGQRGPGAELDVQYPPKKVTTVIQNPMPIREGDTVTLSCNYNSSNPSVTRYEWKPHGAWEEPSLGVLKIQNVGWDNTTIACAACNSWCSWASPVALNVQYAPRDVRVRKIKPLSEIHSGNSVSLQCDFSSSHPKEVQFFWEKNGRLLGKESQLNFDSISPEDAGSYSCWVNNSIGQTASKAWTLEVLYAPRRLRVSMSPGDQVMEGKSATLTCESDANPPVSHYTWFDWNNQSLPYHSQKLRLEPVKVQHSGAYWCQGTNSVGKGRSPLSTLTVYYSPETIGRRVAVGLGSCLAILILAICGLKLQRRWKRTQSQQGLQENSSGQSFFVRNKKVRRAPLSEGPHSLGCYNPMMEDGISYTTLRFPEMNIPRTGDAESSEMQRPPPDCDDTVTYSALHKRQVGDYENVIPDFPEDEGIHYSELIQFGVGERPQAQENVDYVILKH

[2] = biological target: T1, CD22 receptor on the Daudi cell line; assay: cell-based or functional assay; remark: listed apart in the source

B1: CAT-8015 (other)
VH: MEVQLVESGGGLVKPGGSLKLSCAASGFAFSIYDMSWVRQTPEKCLEWVAYISSGGGTTYYPDTVKGRFTISRDNAKNTLYLQMSSLKSEDTAMYYCARHSGYGTHWGVLFAYWGQGTLVTVSAKASGGPEGGSLAALTAHQACHLPLETFTRHRQPRGWEQLEQCGYPVQRLVALYLAARLSWNQVDQVIRNALASPGSGGDLGEAIREQPEQARLALTLAAAESERFVRQGTGNDEAGAANGPADSGDALLERNYPTGAEFLGDGGDVSFSTRGTQNWTVERLLQAHRQLEERGYVFVGYHGTFLEAAQSIVFGGVRARSQDLDAIWRGFYIAGDPALAYGYAQDQEPDARGRIRNGALLRVYVPRSSLPGFYRTSLTLAAPEAAGEVERLIGHPLPLRLDAITGPEEEGGRLETILGWPLAERTVVIPSAIPTDPRNVGGDLDPSSIPDKEQAISALPDYASQPGKPPREDLK
VL: MDIQMTQTTSSLSASLGDRVTISCRASQDISNYLNWYQQKPDGTVKLLIYYTSILHSGVPSRFSGSGSGTDYSLTISNLEQEDFATYFCQQGNTLPWTFGCGTKLEIK
modifications: Asn-358 partially deamidated to Asp-358 and iso-Asp-358 in the preparations tested (extent differs by pool)
Relative Potency (%) in apoptosis bioassay (Caspase-Glo 3/7, Daudi cells; EC50 of Reference Standard / EC50 of test sample); sample: QHP Eluate Pool, bench scale (16.5% pre-peak) [1]: 80% | Relative Potency (%) in apoptosis bioassay (Caspase-Glo 3/7, Daudi cells; EC50 of Reference Standard / EC50 of test sample); sample: QHP Load Pool, bench scale (53.8% pre-peak) [1]: 52% | Relative Potency (%) in apoptosis bioassay (Caspase-Glo 3/7, Daudi cells; EC50 of Reference Standard / EC50 of test sample); sample: QHP Eluate Pool, large scale (17% pre-peak) [2]: 75% | Relative Potency (%) in apoptosis bioassay (Caspase-Glo 3/7, Daudi cells; EC50 of Reference Standard / EC50 of test sample); sample: QHP Load Pool, large scale (50.3% pre-peak) [2]: 51%
